The source of these data is patent US20040214773.

Data set [1] deals with Spi2A-3xFLAG (murine serine protease inhibitor 2A with a C-terminal 3xFLAG epitope tag).
In a further data set the target is human cathepsin B (UniProt P07858).
The next data set deals with T1, human cathepsin G (UniProt P08311).
T1 sequence: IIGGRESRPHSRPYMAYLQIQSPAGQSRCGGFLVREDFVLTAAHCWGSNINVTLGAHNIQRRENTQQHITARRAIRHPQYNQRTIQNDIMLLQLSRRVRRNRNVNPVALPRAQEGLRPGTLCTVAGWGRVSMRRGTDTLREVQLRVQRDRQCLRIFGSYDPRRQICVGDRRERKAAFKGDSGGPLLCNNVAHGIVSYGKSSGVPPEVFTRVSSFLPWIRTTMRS

The next data set addresses T2, human cathepsin H (UniProt P09668).
T2 sequence: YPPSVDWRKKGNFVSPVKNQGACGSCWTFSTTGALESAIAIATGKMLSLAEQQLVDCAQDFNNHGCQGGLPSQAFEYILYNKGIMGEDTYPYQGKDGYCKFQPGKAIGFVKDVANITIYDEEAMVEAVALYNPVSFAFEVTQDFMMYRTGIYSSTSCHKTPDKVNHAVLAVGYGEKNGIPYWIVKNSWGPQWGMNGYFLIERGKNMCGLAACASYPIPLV

The next data set concerns the target T3, human cathepsin K (UniProt P43235).
T3 sequence: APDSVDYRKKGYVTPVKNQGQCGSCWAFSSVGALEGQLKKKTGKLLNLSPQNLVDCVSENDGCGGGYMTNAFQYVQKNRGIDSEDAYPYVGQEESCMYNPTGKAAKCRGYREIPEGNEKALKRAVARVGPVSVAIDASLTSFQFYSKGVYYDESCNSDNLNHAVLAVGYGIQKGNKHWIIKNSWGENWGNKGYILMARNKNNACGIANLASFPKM

For the next data set, the target named is human cathepsin L (UniProt P07711).
Another data set has as its target human cathepsin V (UniProt O60911).
The target in another data set is human elastase (UniProt P08246).
In the next data set the target is T4, human granzyme A (UniProt P12544).
T4 sequence: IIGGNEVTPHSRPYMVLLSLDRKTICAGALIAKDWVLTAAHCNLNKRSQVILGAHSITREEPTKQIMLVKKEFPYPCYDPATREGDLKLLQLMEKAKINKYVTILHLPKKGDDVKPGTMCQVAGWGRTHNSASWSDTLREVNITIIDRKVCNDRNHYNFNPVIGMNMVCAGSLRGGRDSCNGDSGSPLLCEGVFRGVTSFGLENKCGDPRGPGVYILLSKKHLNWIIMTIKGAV

The next data set concerns the target human granzyme B (UniProt P10144).

Sequence of human cathepsin L (P07711 114-333): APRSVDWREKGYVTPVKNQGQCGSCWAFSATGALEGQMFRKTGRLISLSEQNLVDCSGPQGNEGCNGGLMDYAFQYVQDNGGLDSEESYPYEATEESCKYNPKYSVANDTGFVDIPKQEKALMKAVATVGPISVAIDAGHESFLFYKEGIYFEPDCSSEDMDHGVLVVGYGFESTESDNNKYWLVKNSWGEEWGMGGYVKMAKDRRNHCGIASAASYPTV
Sequence of human elastase (P08246 30-247): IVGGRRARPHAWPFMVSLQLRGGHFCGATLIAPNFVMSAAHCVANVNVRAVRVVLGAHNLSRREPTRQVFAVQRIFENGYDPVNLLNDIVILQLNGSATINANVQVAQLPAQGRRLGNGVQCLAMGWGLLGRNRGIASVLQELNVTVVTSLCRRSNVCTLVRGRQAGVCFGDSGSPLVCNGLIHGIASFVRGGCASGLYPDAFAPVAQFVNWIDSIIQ
Sequence of human granzyme B (P10144 21-247): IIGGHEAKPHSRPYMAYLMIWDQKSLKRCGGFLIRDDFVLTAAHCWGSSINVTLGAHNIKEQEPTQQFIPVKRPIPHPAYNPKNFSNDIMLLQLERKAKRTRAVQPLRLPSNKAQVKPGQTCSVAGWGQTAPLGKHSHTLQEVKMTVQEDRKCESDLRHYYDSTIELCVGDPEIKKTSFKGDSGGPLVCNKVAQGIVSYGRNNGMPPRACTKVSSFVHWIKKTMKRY
Sequence of human cathepsin V (O60911 114-334): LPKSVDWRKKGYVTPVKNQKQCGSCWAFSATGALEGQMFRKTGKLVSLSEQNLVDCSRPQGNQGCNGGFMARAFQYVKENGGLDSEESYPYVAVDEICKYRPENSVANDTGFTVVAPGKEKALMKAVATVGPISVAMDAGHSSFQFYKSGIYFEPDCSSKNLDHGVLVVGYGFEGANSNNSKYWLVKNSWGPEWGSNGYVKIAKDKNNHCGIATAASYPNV

As for human cathepsin B, the “continuous hydrolysis of the cathepsin B substrate (Z-FR)2-R110, 20 nM cathepsin B with 200 or 400 nM Spi2A” value in [1] is “The enzyme was completely inhibited, within the dead time of the measurement”.
In the case of “alkaline phosphatase tagged with C-terminal 3xFLAG (Sigma-Aldrich)”, the “protease activity after incubation under the same conditions as with Spi2A” value in the data set with human cathepsin B, in the data set with human cathepsin G, with human cathepsin H, with human cathepsin K, in the data set with human cathepsin L and with human cathepsin V was “had no effect on protease activity” throughout. In addition, the “protease activity after incubation under the same conditions as with Spi2A” value with human elastase, with human granzyme A and with human granzyme B was “had no effect on protease activity” throughout.
